# Measurements published in patent US20080241919A1, “Defined media for pluripotent stem cell culture” (The Burnham Institute of Medical Research, priority 2003, published 2008).
# Test system: human embryonic stem cells (hESCs)
# Assay: Other growth factors in place of bFGF for undifferentiated growth of hESCs
# Assay type: cell-based
# Settings: feeder- and serum-free conditions
# Experimental: All the growth factors were dissolved in a PBS buffer that contained 0.5% BSA, 1 mM DTT (Dithiothreitol) and 10% glyceral as a 10 μg/ml (500×) stock solution and stored in aliquots at −80° C. These factors were added individually to the hESC cultures at a concentration of 20 ng/ml, in the absence of bFGF or in the presence of a low concentration of bFGF (4 ng/ml). Seven days after seeding undifferentiated hESCs on laminin/collagen-coated plates, the cultures were examined.
molecule,measurement,value
"activin-A: human growth factor tested in place of bFGF (protein, UniProt P08476 311-426, looked up) Inhibin beta A chain: GLECDGKVNICCKKQFFVSFKDIGWNDWIIAPSGYHANYCEGECPSHIAGTSGSSLSFHSTVINHYRMRGHSPFANLKSCCVPTKLRPMSMLYYDDGQNIIKKDIQNMIVEECGCS",ability to replace bFGF in supporting undifferentiated growth of hESCs,can not replace bFGF
